# Test results: patent US7067484 (Genentech, dated 2006)
# Target: CD4-IgG (human, UniProt P01730 26-205)
# Experiment: immunoaffinity chromatography of BT20 conditioned medium on CD4-IgG-Protein A precolumn, SDS-PAGE with silver staining
# Method: BT20 cells were grown to 80% confluence in 150 mm plates, harvested by 5 mM EDTA in PBS, and seeded into […] roller bottles with growth medium. After 1 week of growth the cells were nearly confluent. The growth medium was removed, the cells washed with PBS, and serum-free growth medium was added. After 5 days, conditioned medium was harvested (12 liters from 72 roller bottles), centrifuged, sterile filtered, concentrated in a 12 kD molecular weight cutoff Amicon filter, and stored at −70° C.
# 200 ml of BT20 conditioned media, concentrated as described above from 12 liters and frozen, was thawed, centrifuged at 17,000 rpm in a Sorvall SS34 rotor, and filtered through a 0.45 µm filter to clarify the solution. The 200 ml was pumped through a 2.0 ml CD4-IgG—Protein A (CD4-IgG covalently linked to Protein A through IgG moiety) immunoaffinity precolumn and a 1.0 ml REK7-IgG—Protein A (REK7-IgG covalently linked to Protein A through IgG moiety) immunoaffinity column in tandem with a flow rate of 0.5 ml/min. All chromatography was carried out at 4° C. […] The eluates were brought to pH 7.4 by the addition of 50 mM potassium phosphate, and an aliquot of each was analyzed by sodium dodecycl sulfate (SDS)—polyacrylamide gel electrophoresis (PAGE). […]
binder,measurement,value
"AL-1 (REK7 ligand) purified from BT20 cell conditioned medium (ligand, Soluble forms in serum-free conditioned medium of human BT20 cells; The 27,000 and 25,000 Dalton proteins appeared to be proteolytically processed forms of the 28,000 Dalton protein; also called 28,000, 27,000 and 25,000 Dalton proteins; BT20 cell-derived AL-1) QDPGSKAVADRYAVYWNSSNPRFQRGDYHIDVCINDYLDVFCPHYEDSVPEDKTERYVLYMVNFDGYSACDHTSKGFKRWECNRPHSPNGPLKFSEKFQLFTPFSLGFEFRPGREYFYISSAIPDNGRRSCLKLKVFVRPTNSCMKTIGVHDRVFDVNDKVENSLEPADDTVHESAEPSRGEN",binding result,no binding
